Test results taken from article PMC7949122 (The Journal of Biological Chemistry, 2021).
Non-standard residues stand in square brackets, D forms with d. No end group written: not given here. Hyp = O=C(O)[C@@H]1C[C@@H](O)CN1; 2Thi = N[C@@H](Cc1cccs1)C(=O)O; NChg = not defined here

T1: human B2R on transfected HEK293A cells (human, UniProt P30411 1-391)
T1 chain: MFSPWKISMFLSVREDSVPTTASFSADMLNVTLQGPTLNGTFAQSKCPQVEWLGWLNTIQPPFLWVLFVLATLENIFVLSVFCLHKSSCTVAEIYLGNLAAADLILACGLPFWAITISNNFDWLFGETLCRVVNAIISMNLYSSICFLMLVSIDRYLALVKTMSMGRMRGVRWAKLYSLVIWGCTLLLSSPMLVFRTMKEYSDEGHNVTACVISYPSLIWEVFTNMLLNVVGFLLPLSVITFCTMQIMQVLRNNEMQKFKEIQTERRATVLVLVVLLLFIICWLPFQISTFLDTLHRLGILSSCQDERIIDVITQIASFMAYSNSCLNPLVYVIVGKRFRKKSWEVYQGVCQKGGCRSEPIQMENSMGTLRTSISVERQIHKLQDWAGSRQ


Experiments:
[1] = tested on: B1R; parameters: method as in PMID 15734727; conditions: cited from earlier work
[2] = molecular target: T1, human B2R on transfected HEK293A cells; assay: B2R(Ø); displacement of [3H]-BK
[3] = molecular target: T1, human B2R on transfected HEK293A cells; assay: B2R; displacement of [3H]-BK

Row | IC50 [2] [nM] | IC50 [3] [nM] | Molecule | kinin receptor selectivity [1]
1 | – | – | desArg^10-KD: carboxy-terminally truncated peptide metabolite (KRPPGFSPF; Lysyl-bradykinin; UniProt P01042 380-388, looked up, fragment) | selectively bind to the other type of kinin receptor, the inducible B1R
2 | 4.38 | 6.21 | RP[Hyp]G[2Thi]S[NChg][2Thi]R (reading uncertain; also: printed as [Hyp^3,Thi^5,^NChg^7,Thi^8]-BK) [NG291 ([Hyp^3,Thi^5,^NChg^7,Thi^8]-BK)] | –
3 | 18 | 17.7 | RP[Hyp]G[2Thi]SP[Tyr(4-Me)]R (also: ΨCH2NH reduced bond between residues 8 and 9) [RMP-7 ([Hyp^3,Thi^5,(4-Me)Tyr^8(ΨCH2NH)Arg^9]-BK)] | –
